Assay results as given in US10227575B2, “Multi-domain enzymes having cutinase activity, compositions comprising same and uses thereof” (OZYMES, priority 2015, dated 2019).
Like-named read-outs stand apart in the source and are kept apart here. Marks after values point to notes of the source that are not given here.

Columns and labels:
[1] = Stability in the presence of hydrogen peroxide; type: physicochemical
Method: (§1) Esterase activity was determined by monitoring the formation of para-nitrophenol (pNP) at 410 nm from various pNP-esters using a Beckman UV spectrophotometer (model DU 640). Substrates were completely dissolved in 2-propanol (8 mM) and were then added to 50 mM Tris/HCl buffer pH 8.0 to give a final substrate concentration of 0.8 mM. The reaction (1 mL) was started by adding an appropriate amount of enzyme. One enzyme unit (U) was defined as the amount of enzyme that produced 1 μmol of product (pNP) per min; specific activity was expressed as U/mg protein. A molar extinction coefficient of 15 mM^−1 cm^−1 was used for the calculation.
Purified cutinases were incubated at room temperature in the presence of 0, 30, 100, 300, 1500, and 3000 ppm of hydrogen peroxide. Residual enzyme activity was assayed (see Example 20.1) after 1, 2, 3, and 7 days of incubation.

[2] = Circular dichroism spectroscopy, melting temperature and refolding; type: physicochemical
Method: CD spectra were recorded using a Jasco™ J-815 spectrometer operating with the Spectra™ Manager software. Temperature was controlled using a Jasco™ PFD-452S peltier unit. Previously purified protein solutions were adjusted to 0.15 mg/mL (if quantities allowed for) and CD spectra were recorded between 190 and 250 nm using a Quartz cuvette (ID=0.1 cm). Blanks containing buffer only were prepared and used as baseline. Temperature dependent protein unfolding was monitored at 222 nm with thermo profiles ranging from 20 up to 90° C. (2° C. min-1). Samples were kept for 5 min at the respective maximum temperature and protein refolding was monitored using the same conditions as above reversing the thermo profiles. Thermodynamic parameters (Tm, ΔH, ΔS, ΔG) for the folding/unfolding process, if applicable, were calculated using the Spectra™ Manager software.

[3] = Enzymatic activity in the presence of organic solvents; type: biochemical; conditions: buffer only = 100%
Method: Enzyme activity in various organic solvents was studied over a concentration range of 1-30% at room temperature. pNP-palmitate was completely dissolved in 2-propanol (8 mM) and then added to 50 mM Tris/HCl buffer pH 8.0 containing up to 30% organic solvent to give a final substrate concentration of 0.8 mM. The reaction was started by addition of enzyme and the formation of pNP was assayed as described above in Example 20.1.

Temperature optimum = type: biochemical; conditions: for Relative activity at temperature: highest activity set to 100%
Method: For estimation of the temperature optimum, buffer containing pNP-palmitate (see esterase assay in Example 20.1) was pre-incubated to reach the desired temperature, enzyme was then added, and the formation of pNP was assayed. For this experiment, Tris/HCl buffer was replaced with sodium phosphate buffer (50 mM, pH 8.0) to avoid a pH shift at the different temperatures.

[4] = Enzyme substrate profiles, esterase assays; type: biochemical; conditions: highest activity towards a specific substrate set to 100%
Method: as §1

[5] = type: biochemical, Petromyces albertensis; conditions: for Residual ochratoxin A (%): 5 ppm Ochratoxin A, 37° C., relative to incubation without enzyme
Method: The enzymes purified in Example 18 were tested for their ability to degrade the mycotoxin Ochratoxin A. In general, the mycotoxin was incubated with different concentrations of the enzyme, and the remaining mycotoxin concentration, as well the respective degradation products, were monitored by LC-MS over time (where possible/applicable).
Reactions were performed in 1 mL volumes in glass HPLC vials comprising the mycotoxin to be analyzed and the enzyme to be tested. For Ochratoxin A (Petromyces albertensis, 01877 Sigma), 50 μL of a 100 ppm stock solution in methanol (final concentration of 5 ppm) was added to 910 μL of distilled water and 40 μL of the enzyme to be tested. In control reactions, the volume of enzyme was substituted with distilled water. The reactions were incubated in an Eppendorf thermomixer at 37° C. with shaking at 750 rpm. 100 μL samples were withdrawn at 1, 4 and 24 h for chromatographic analysis.
Mycotoxin analysis was carried out using a Shimadzu LCMS-2020 equipped with a UV/vis detector. Chromatographic separation of 10 μL injected sample was carried out at 30° C. on a Kinetex 2.6 μm XB-C18 column 100 Å (50×2.1 mm) using a binary gradient. For Ochratoxin A, eluent A consisted of water and eluent B consisted of acetonitrile and the UV detection wavelength was 360 nm.
The five enzymes tested were screened for their ability to degrade 5 ppm (5,000 ppb) Ochratoxin A at 37° C.

[6] = Activity of crude culture supernatants from bioreactor; type: biochemical; conditions: pNP-dodecanoate
[7] = Specific activity of purified enzymes (standard esterase assay); type: biochemical
Method: In summary, using different techniques for enzyme purification, pure enzyme preparations were obtained and tested for their activity towards a standard esterase substrate, pNP-palmitate. Enzymatic activities of the purified variants are summarized below:
as §1

B1: Am-Kr: chimeric variant: AmCUT fused to the T/P-rich linker domain and polymer binding domain of KrCUT, SEQ ID NO: 27 (protein)
chain: ACSDLEIVFARGSGEAPGLGITGTPLVSDVKSALSSASVSSYAVDYAASYDQTSAGPGATDMSNHIKSTAAACPDTKFAIGGYSQGASVTDIAIGIRTYLGTGQTIPTELAPRVVAVIAFGNPLGLYGQTIKTASPTYGPKSLEFCNRGDNVCGGTGTGPGYGHLSYARDGSVDQAAAFIAKQYNASAGTPTTPTPTPTPTPVPTTCVRDSTRDHVAADRAVSLYGRAYARGSRDSLGATSSYNVVSLQQVEGGWRLVTAC
modifications: YebF carrier; Am-Kr variant
Q: Which “Relative activity (%) after exposure to hydrogen peroxide” value (shortened to “Relative activity (%) after exposure”) ([1]; H2O2 30 ppm, Day 0) does the source give for B1 here?
A: The value was 92 ± 3%.

Q: And the “Relative activity (%) after exposure” value ([1]; H2O2 30 ppm, Day 1)?
A: Its value is 90 ± 15%.

Q: And the “Relative activity (%) after exposure” value ([1]; H2O2 30 ppm, Day 2)?
A: Its value is 82 ± 8%.

Q: What about the “Relative activity (%) after exposure” value ([1]; H2O2 30 ppm, Day 3) of the same molecule?
A: The value was 71 ± 4%.

Q: And the “Relative activity (%) after exposure” value ([1]; H2O2 30 ppm, Day 7)?
A: Its value is 63 ± 5%.

Q: And the “Relative activity (%) after exposure” value ([1]; H2O2 100 ppm, Day 0)?
A: The value was 101 ± 3%.

Q: What about the “Relative activity (%) after exposure” value ([1]; H2O2 100 ppm, Day 1) of the same molecule?
A: Its value is 97 ± 5%.

Q: And the “Relative activity (%) after exposure” value ([1]; H2O2 100 ppm, Day 2)?
A: The value was 83 ± 2%.

Q: And the “Relative activity (%) after exposure” value ([1]; H2O2 100 ppm, Day 3)?
A: Its value is 73 ± 5%.

Q: And the “Relative activity (%) after exposure” value ([1]; H2O2 100 ppm, Day 7)?
A: The value was 69 ± 4%.

Q: What about the “Relative activity (%) after exposure” value ([1]; H2O2 300 ppm, Day 0) of the same molecule?
A: Its value is 100 ± 9%.

Q: What about the “Relative activity (%) after exposure” value ([1]; H2O2 300 ppm, Day 1) of the same molecule?
A: Its value is 88 ± 5%.

Q: And the “Relative activity (%) after exposure” value ([1]; H2O2 300 ppm, Day 2)?
A: Its value is 83 ± 2%.

Q: What about the “Relative activity (%) after exposure” value ([1]; H2O2 300 ppm, Day 3) of the same molecule?
A: Its value is 72 ± 10%.

Q: And the “Relative activity (%) after exposure” value ([1]; H2O2 300 ppm, Day 7)?
A: The value was 61 ± 4%.

Q: And the “Relative activity (%) after exposure” value ([1]; H2O2 1,500 ppm, Day 0)?
A: The value was 91 ± 8%.

Q: And the “Relative activity (%) after exposure” value ([1]; H2O2 1,500 ppm, Day 1)?
A: The value was 97 ± 9%.

Q: What about the “Relative activity (%) after exposure” value ([1]; H2O2 1,500 ppm, Day 2) of the same molecule?
A: Its value is 75 ± 15%.

Q: What about the “Relative activity (%) after exposure” value ([1]; H2O2 1,500 ppm, Day 3) of the same molecule?
A: Its value is 73 ± 3%.

Q: What about the “Relative activity (%) after exposure” value ([1]; H2O2 1,500 ppm, Day 7) of the same molecule?
A: The value was 60 ± 6%.

Q: What about the “Relative activity (%) after exposure” value ([1]; H2O2 3,000 ppm, Day 0) of the same molecule?
A: The value was 86 ± 6%.

Q: And the “Relative activity (%) after exposure” value ([1]; H2O2 3,000 ppm, Day 1)?
A: The value was 68 ± 9%.

Q: And the “Relative activity (%) after exposure” value ([1]; H2O2 3,000 ppm, Day 2)?
A: The value was 63 ± 4%.

Q: What about the “Relative activity (%) after exposure” value ([1]; H2O2 3,000 ppm, Day 3) of the same molecule?
A: The value was 67 ± 2%.

Q: And the “Relative activity (%) after exposure” value ([1]; H2O2 3,000 ppm, Day 7)?
A: Its value is 55 ± 3%.

Q: And the “Relative activity (%) after exposure” value ([1]; H2O2 3,000 ppm, Day 7, listed as Am—Kr)?
A: Its value is 55%.

Q: What about the refolding ([2]; CD at 222 nm) of the same molecule?
A: The refolding was “did not show any refolding”.

Q: What about the “melting temperature (Tm)” value ([2]; CD at 222 nm, unfolding) of the same molecule?
A: The value was 55.0 °C.

Q: What about the “Tm (° C.)” value ([2]; estimated using CD-spectroscopy) of the same molecule?
A: Its value is 55 ± 1 °C.

Q: And the “Relative enzymatic activity (%)” value ([3]; 2-Propanol 5% (v/v))?
A: The value was 70 ± 10%.

Q: And the “Relative enzymatic activity (%)” value ([3]; 2-Propanol 10% (v/v))?
A: Its value is 23 ± 2%.

Q: What about the “Relative enzymatic activity (%)” value ([3]; Acetone 1% (v/v)) of the same molecule?
A: The value was 118 ± 1%.

Q: And the “Relative enzymatic activity (%)” value ([3]; Acetone 5% (v/v))?
A: Its value is 90 ± 14%.

Q: What about the “Relative enzymatic activity (%)” value ([3]; Acetone 10% (v/v)) of the same molecule?
A: The value was 74 ± 7%.

Q: What about the “Relative enzymatic activity (%)” value ([3]; Dimethyl sulfoxide (DMSO) 10% (v/v)) of the same molecule?
A: The value was 114 ± 2%.

Q: And the “Relative enzymatic activity (%)” value ([3]; Dimethyl sulfoxide (DMSO) 20% (v/v))?
A: Its value is 90 ± 8%.

Q: What about the “Relative enzymatic activity (%)” value ([3]; Dimethyl sulfoxide (DMSO) 30% (v/v)) of the same molecule?
A: The value was 60 ± 5%.

Q: What about the “Relative enzymatic activity (%)” value ([3]; Dimethylformamide (DMF) 5% (v/v)) of the same molecule?
A: Its value is 120 ± 11%.

Q: And the “Relative enzymatic activity (%)” value ([3]; Methanol 10% (v/v))?
A: The value was 87 ± 10%.

Q: And the “Relative enzymatic activity (%)” value ([3]; Methanol 20% (v/v))?
A: The value was 60 ± 13%.

Q: And the “Temp. opt. (° C.)” value (Temperature optimum)?
A: Its value is 45 °C.

Q: What about the “Relative activity at temperature” value (Temperature optimum; 20 ° C.) of the same molecule?
A: The value was 50 ± 2%.

Q: What about the “Relative activity at temperature” value (Temperature optimum; 25 ° C.) of the same molecule?
A: Its value is 61 ± 2%.

Q: What about the “Relative activity at temperature” value (Temperature optimum; 30 ° C.) of the same molecule?
A: Its value is 69 ± 2%.

Q: And the “Relative activity at temperature” value (Temperature optimum; 35 ° C.)?
A: The value was 78 ± 1%.

Q: What about the “Relative activity at temperature” value (Temperature optimum; 40 ° C.) of the same molecule?
A: Its value is 87 ± 2%.

Q: And the “Relative activity at temperature” value (Temperature optimum; 45 ° C.)?
A: The value was 100* %.

Q: What about the “Relative activity at temperature” value (Temperature optimum; 50 ° C.) of the same molecule?
A: The value was 81 ± 10%.

Q: And the “Relative activity at temperature” value (Temperature optimum; 55 ° C.)?
A: Its value is 37 ± 5%.

Q: What about the “Relative activity at temperature” value (Temperature optimum; 60 ° C.) of the same molecule?
A: The value was 9 ± 1%.

Q: And the “Relative activity, pNP-acetate (C2)” value [4]?
A: The value was 9 ± 1%.

Q: And the “Relative activity, pNP-butyrate (C4)” value [4]?
A: The value was 75 ± 8%.

Q: What about the “Relative activity, pNP-caprylate (C8)” value [4] of the same molecule?
A: The value was 100* %.

Q: And the “Relative activity, pNP-decanoate (C10)” value [4]?
A: The value was 72 ± 2%.

Q: What about the “Relative activity, pNP-myristate (C14)” value [4] of the same molecule?
A: The value was 46 ± 8%.

Q: What about the “Relative activity, pNP-palmitate (C16)” value [4] of the same molecule?
A: The value was 49 ± 6%.

Q: What about the “Residual ochratoxin A (%)” value ([5]; 1 h) of the same molecule?
A: The value was 6%.

Q: And the “Residual ochratoxin A (%)” value ([5]; 4 h)?
A: Its value is 0%.

Q: What about the “Residual ochratoxin A (%)” value ([5]; 24 h) of the same molecule?
A: Its value is 0%.

Q: And the “Ochratoxin A degraded” value ([5]; after 4 hours)?
A: The value was 100%.

Q: And the “Ochratoxin A Degradation per U and h” value ([5]; per 1 U of enzyme (pNP standard test) and hour at 37° C.)?
A: Its value is 3 µmol.

Q: What about the “activity of crude culture supernatant” value [6] of the same molecule?
A: Its value is 0.5 U/mL.

Q: And the “Enzymatic activity of the purified variant” value ([7]; pNP-palmitate)?
A: Its value is 174 ± 11 U/mg.

Q: What about the “Spec. Act. (U/mg)” value ([7]; towards pNP-palmitate (standard assay)) of the same molecule?
A: Its value is 174 ± 11 U/mg.
